The record followed here is patent US20070036786A1 (published 2007).

Sequences and labels used below:
B1: hu3G8VH-1/hu3G8VL-1 (antibody, human IgG1, kappa)
heavy: not shown
light: DIVMTQSPDSLAVSLGERATINCKASQSVDFDGDSFMNWYQQKPGQPPKLLIYTTSNLESGVPDRFSGSGSGTDFTLTISSLQAEDVAVYYCQQSNEDPYTFGQGTKLEIKRTVAAPSVFIFPPSDEQLKSGTASVVCLLNNFYPREAKVQWKVDNALQSGNSQESVTEQDSKDSTYSLSSTLTLSKADYEKHKVYACEVTHQGLSSPVTKSFNRGEC
notes: Heavy chain Hu3G8VH-1G1, light chain Hu3G8VL-1K; also called Hu3G8-1.1
B2: hu3G8VH-20/hu3G8VL-1 (antibody)
VH: QVTLRESGPALVKPTQTLTLTCTFSGFSLSTSGVGVGWIRQPPGKALEWLAHIWWDDDKRYSPSLKSRLTISKDTSKNQVVLTMTNMDPVDTATYYCARINPAWFAYWGQGTLVTVSS
light: DIVMTQSPDSLAVSLGERATINCKASQSVDFDGDSFMNWYQQKPGQPPKLLIYTTSNLESGVPDRFSGSGSGTDFTLTISSLQAEDVAVYYCQQSNEDPYTFGQGTKLEIKRTVAAPSVFIFPPSDEQLKSGTASVVCLLNNFYPREAKVQWKVDNALQSGNSQESVTEQDSKDSTYSLSSTLTLSKADYEKHKVYACEVTHQGLSSPVTKSFNRGEC
notes: VH fused to human Cγ1 constant region
B3: hu3G8VH-6/hu3G8VL-1 (antibody)
VH: QVTLRESGPALVKPTQTLTLTCTFSGFSLSTSGVGVGWIRQPPGKALEWLAHIWWDDDKRYNPALKSRLTISKDTSKNQVVLTMTNMDPVDTATYYCARINPAWFDYWGQGTLVTVSS
light: DIVMTQSPDSLAVSLGERATINCKASQSVDFDGDSFMNWYQQKPGQPPKLLIYTTSNLESGVPDRFSGSGSGTDFTLTISSLQAEDVAVYYCQQSNEDPYTFGQGTKLEIKRTVAAPSVFIFPPSDEQLKSGTASVVCLLNNFYPREAKVQWKVDNALQSGNSQESVTEQDSKDSTYSLSSTLTLSKADYEKHKVYACEVTHQGLSSPVTKSFNRGEC
notes: as for B2
B4: hu3G8VH-4/hu3G8VL-1 (antibody)
VH: QVTLRESGPALVKPTQTLTLTCTFSGFSLSTSGMGVGWIRQPPGKALEWLAHIWWDDDKRYNPALKSRLTISKDTSKNQVVLTMTNMDPVDTATYYCAQINPAWFDYWGQGTLVTVSS
light: DIVMTQSPDSLAVSLGERATINCKASQSVDFDGDSFMNWYQQKPGQPPKLLIYTTSNLESGVPDRFSGSGSGTDFTLTISSLQAEDVAVYYCQQSNEDPYTFGQGTKLEIKRTVAAPSVFIFPPSDEQLKSGTASVVCLLNNFYPREAKVQWKVDNALQSGNSQESVTEQDSKDSTYSLSSTLTLSKADYEKHKVYACEVTHQGLSSPVTKSFNRGEC
notes: as for B2
B5: hu3G8VH-12/hu3G8VL-1 (antibody)
VH: QVTLRESGPALVKPTQTLTLTCTFSGFSLSTSGMGVGWIRQPPGKALEWLAHIWWDDDKRYSPSLKSRLTISKDTSKNQVVLTMTNMDPVDTATYYCARINPAWFAYWGQGTLVTVSS
light: DIVMTQSPDSLAVSLGERATINCKASQSVDFDGDSFMNWYQQKPGQPPKLLIYTTSNLESGVPDRFSGSGSGTDFTLTISSLQAEDVAVYYCQQSNEDPYTFGQGTKLEIKRTVAAPSVFIFPPSDEQLKSGTASVVCLLNNFYPREAKVQWKVDNALQSGNSQESVTEQDSKDSTYSLSSTLTLSKADYEKHKVYACEVTHQGLSSPVTKSFNRGEC
notes: as for B2
B6: hu3G8VH-2/hu3G8VL-1 (antibody)
VH: QVTLKESGPALVKPTQTLTLTCTFSGFSLSTSGMGVGWIRQPPGKALEWLAHIWWDDDKRYNPALKSRLTISKDTSKNQVVLTMTNMDPVDTATYYCARINPAWFAYWGQGTLVTVSS
light: DIVMTQSPDSLAVSLGERATINCKASQSVDFDGDSFMNWYQQKPGQPPKLLIYTTSNLESGVPDRFSGSGSGTDFTLTISSLQAEDVAVYYCQQSNEDPYTFGQGTKLEIKRTVAAPSVFIFPPSDEQLKSGTASVVCLLNNFYPREAKVQWKVDNALQSGNSQESVTEQDSKDSTYSLSSTLTLSKADYEKHKVYACEVTHQGLSSPVTKSFNRGEC
notes: as for B2
B7: hu3G8VH-23/hu3G8VL-1 (antibody)
VH: QVTLRESGPALVKPTQTLTLTCTFSGFSLSTSGVGVGWIRQPPGKALEWLAHIWWDDDKRYSPSLKSRLTISKDTSKNQVVLTMTNMDPVDTATYYCAKINPAYFAYWGQGTLVTVSS
light: DIVMTQSPDSLAVSLGERATINCKASQSVDFDGDSFMNWYQQKPGQPPKLLIYTTSNLESGVPDRFSGSGSGTDFTLTISSLQAEDVAVYYCQQSNEDPYTFGQGTKLEIKRTVAAPSVFIFPPSDEQLKSGTASVVCLLNNFYPREAKVQWKVDNALQSGNSQESVTEQDSKDSTYSLSSTLTLSKADYEKHKVYACEVTHQGLSSPVTKSFNRGEC
notes: as for B2
B8: hu3G8VH-18/hu3G8VL-1 (antibody)
VH: QVTLRESGPALVKPTQTLTLTCTFSGFSLSTSGMGVGWIRQPPGKALEWLAHIWWDDDKRYNPALKSRLTISKDTSKNQVVLTMTNMDPVDTATYYCAHINPAWFAYWGQGTLVTVSS
light: DIVMTQSPDSLAVSLGERATINCKASQSVDFDGDSFMNWYQQKPGQPPKLLIYTTSNLESGVPDRFSGSGSGTDFTLTISSLQAEDVAVYYCQQSNEDPYTFGQGTKLEIKRTVAAPSVFIFPPSDEQLKSGTASVVCLLNNFYPREAKVQWKVDNALQSGNSQESVTEQDSKDSTYSLSSTLTLSKADYEKHKVYACEVTHQGLSSPVTKSFNRGEC
notes: as for B2
B9: hu3G8VH-16/hu3G8VL-1 (antibody)
VH: QVTLRESGPALVKPTQTLTLTCTFSGFSLSTSGMGVGWIRQPPGKALEWLAHIWWDDDKRYNPALKSRLTISKDTSKNQVVLTMTNMDPVDTATYYCAKINPAWFAYWGQGTLVTVSS
light: DIVMTQSPDSLAVSLGERATINCKASQSVDFDGDSFMNWYQQKPGQPPKLLIYTTSNLESGVPDRFSGSGSGTDFTLTISSLQAEDVAVYYCQQSNEDPYTFGQGTKLEIKRTVAAPSVFIFPPSDEQLKSGTASVVCLLNNFYPREAKVQWKVDNALQSGNSQESVTEQDSKDSTYSLSSTLTLSKADYEKHKVYACEVTHQGLSSPVTKSFNRGEC
notes: as for B2
B10: hu3G8VH-14/hu3G8VL-1 (antibody)
VH: QVTLRESGPALVKPTQTLTLTCTFSGFSLSTSGMGVGWIRQPPGKALEWLAHIWWNDDKRYNPALKSRLTISKDTSKNQVVLTMTNMDPVDTATYYCARINPAWFAYWGQGTLVTVSS
light: DIVMTQSPDSLAVSLGERATINCKASQSVDFDGDSFMNWYQQKPGQPPKLLIYTTSNLESGVPDRFSGSGSGTDFTLTISSLQAEDVAVYYCQQSNEDPYTFGQGTKLEIKRTVAAPSVFIFPPSDEQLKSGTASVVCLLNNFYPREAKVQWKVDNALQSGNSQESVTEQDSKDSTYSLSSTLTLSKADYEKHKVYACEVTHQGLSSPVTKSFNRGEC
notes: as for B2
B11: hu3G8VH-19/hu3G8VL-1 (antibody)
VH: QVTLRESGPALVKPTQTLTLTCTFSGFSLSTSGMGVGWIRQPPGKALEWLAHIWWDDDKRYNPALKSRLTISKDTSKNQVVLTMTNMDPVDTATYYCAQINPAYFAYWGQGTLVTVSS
light: DIVMTQSPDSLAVSLGERATINCKASQSVDFDGDSFMNWYQQKPGQPPKLLIYTTSNLESGVPDRFSGSGSGTDFTLTISSLQAEDVAVYYCQQSNEDPYTFGQGTKLEIKRTVAAPSVFIFPPSDEQLKSGTASVVCLLNNFYPREAKVQWKVDNALQSGNSQESVTEQDSKDSTYSLSSTLTLSKADYEKHKVYACEVTHQGLSSPVTKSFNRGEC
notes: as for B2
B12: hu3G8VH-17/hu3G8VL-1 (antibody)
VH: QVTLRESGPALVKPTQTLTLTCTFSGFSLSTSGMGVGWIRQPPGKALEWLAHIWWDDDKRYNPALKSRLTISKDTSKNQVVLTMTNMDPVDTATYYCAAINPAWFAYWGQGTLVTVSS
light: DIVMTQSPDSLAVSLGERATINCKASQSVDFDGDSFMNWYQQKPGQPPKLLIYTTSNLESGVPDRFSGSGSGTDFTLTISSLQAEDVAVYYCQQSNEDPYTFGQGTKLEIKRTVAAPSVFIFPPSDEQLKSGTASVVCLLNNFYPREAKVQWKVDNALQSGNSQESVTEQDSKDSTYSLSSTLTLSKADYEKHKVYACEVTHQGLSSPVTKSFNRGEC
notes: as for B2
B13: hu3G8VH-8/hu3G8VL-1 (antibody)
VH: QVTLRESGPALVKPTQTLTLTCTFSGFSLSTSGMGVGWIRQPPGKALEWLAHIWWDDDKRYNPALKSRLTISKDTSKNQVVLTMTNMDPVDTATYYCARINPAYFAYWGQGTLVTVSS
light: DIVMTQSPDSLAVSLGERATINCKASQSVDFDGDSFMNWYQQKPGQPPKLLIYTTSNLESGVPDRFSGSGSGTDFTLTISSLQAEDVAVYYCQQSNEDPYTFGQGTKLEIKRTVAAPSVFIFPPSDEQLKSGTASVVCLLNNFYPREAKVQWKVDNALQSGNSQESVTEQDSKDSTYSLSSTLTLSKADYEKHKVYACEVTHQGLSSPVTKSFNRGEC
notes: as for B2
B14: hu3G8VH-3/hu3G8VL-1 (antibody)
VH: QVTLRESGPALVKPTQTLTLTCTFSGFSLRTSGMGVGWIRQPPGKALEWLAHIWWDDDKRYNPALKSRLTISKDTSKNQVVLTMTNMDPVDTATYYCARINPAWFAYWGQGTLVTVSS
light: DIVMTQSPDSLAVSLGERATINCKASQSVDFDGDSFMNWYQQKPGQPPKLLIYTTSNLESGVPDRFSGSGSGTDFTLTISSLQAEDVAVYYCQQSNEDPYTFGQGTKLEIKRTVAAPSVFIFPPSDEQLKSGTASVVCLLNNFYPREAKVQWKVDNALQSGNSQESVTEQDSKDSTYSLSSTLTLSKADYEKHKVYACEVTHQGLSSPVTKSFNRGEC
notes: as for B2
B15: hu3G8VH-5/hu3G8VL-1 (antibody)
VH: QVTLRESGPALVKPTQTLTLTCTFSGFSLSTSGMGVGWIRQPPGKALEWLAHIWWDDDKRYNPALKSRLTISKDTSKNQVVLTMTNMDPVDTATYYCAQINPAWFAYWGQGTLVTVSS
light: DIVMTQSPDSLAVSLGERATINCKASQSVDFDGDSFMNWYQQKPGQPPKLLIYTTSNLESGVPDRFSGSGSGTDFTLTISSLQAEDVAVYYCQQSNEDPYTFGQGTKLEIKRTVAAPSVFIFPPSDEQLKSGTASVVCLLNNFYPREAKVQWKVDNALQSGNSQESVTEQDSKDSTYSLSSTLTLSKADYEKHKVYACEVTHQGLSSPVTKSFNRGEC
notes: VH fused to human Cγ1 constant region (glycosylated form); also called Hu3G8-5.1

T1 sequence (P08637 other isoform, or with tags, fused parts or gaps limits assumed): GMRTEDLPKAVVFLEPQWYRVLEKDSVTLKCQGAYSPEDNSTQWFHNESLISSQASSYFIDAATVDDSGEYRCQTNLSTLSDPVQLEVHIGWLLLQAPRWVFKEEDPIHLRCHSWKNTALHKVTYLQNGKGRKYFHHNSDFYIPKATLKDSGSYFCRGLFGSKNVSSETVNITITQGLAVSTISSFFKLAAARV

This assay concerns the target T1, soluble human CD16A (sCD16A) (human, UniProt P08637 17-203).
T1 construct: CD16A truncated just prior to the transmembrane region, expressed in HEK-293; The last seven residues come from vector pCDNA3.1; also called soluble form of human CD16A
The assay can be described thus: ELISA, captured sCD16A. On the procedure: The plate was washed and dilutions of recombinant antibodies starting at 0.5 μg/ml in PBS-T-BSA were then added and incubated for 1 hr at room temp. Binding of recombinant antibodies to the captured sCD16A was then measured using an anti-human IgG-HRP conjugate and TMB substrate. After stopping color development using dilute sulfuric acid, the plate was read at 450 nm.
Take B1: the binding result was “binds”.

In the case of B2, the binding result is reported as “binds”. Next, B3: “binds”. The entry for B4 is “binds”; for B5 it is “binds”. On to B6, for which the binding result is given as “binds”. The entry for B7 is “binds”; for B8 it is “binds”; for B9 it is “binds”. For B10, the binding result is given as “binds”.

For the molecule B11, the binding result is recorded as “binds”.

Turning to B12, the binding result is recorded as “binds”.

With B13, the binding result is listed as “binds”. Regarding B14, the binding result is reported as “binds”. Turning to B15, the binding result is recorded as “binds”.
